# B1: mt bTrx-All-7 (designed binder)
# chain: MSDKIIHLTDDSFDTDVLKADGAILVDFWAEWSGPPLNFYRHGFLPNAVMASMLEVGPWFELLGPCGLAGHPLSSLRIGPSKMIAPILDEIADEYQGKLTVAKLNIDQNPGTAPKYGIRGIPTLLLFKNGEVAATKVGALSKGQLKEFLDANLA
# notes: Purified recombinant protein; Largely monomeric; also called All-7 aptamer in mutated bTrx (mt); All-7 in the mutated scaffold; not shown: Flag-tag, one or two His-tags and a 9R protein transduction domain
# Target: T1, ErbB2 receptor (UniProt P04626 23-1255)
# T1 construct: Whole endogenous receptor from cell extracts, immunoprecipitated with an ErbB2 antibody
# Assay: co-immunoprecipitation from SK-BR3 membrane extracts with an ErbB2 antibody, Western blot with Flag antibody
binder,measurement,value
B1,fold increase in binding against wt bTrx-All-7,2.4 fold
